Source: patent US20090124537A1
Blank lines part the entries; values can stand above or below the binder they belong to. Bridges are numbered along the chain shown (N, C = ends). Where no end group is shown, it is not given here.

Assays:
[1] = biological target: BMP-7 receptor of ROS cell plasma membrane fraction (ROS cell type II BMP receptor) (rat); assay: cell-based or functional assay
[2] = biological target: BMP-7 receptor of ROS cell plasma membrane fraction (ROS cell type II BMP receptor) (rat); assay: radioligand receptor assay, 125I-BMP-7 on ROS cell plasma membranes
[3] = biological target: BMP-7 receptor of ROS cell plasma membrane fraction (ROS cell type II BMP receptor) (rat); assay: radioligand receptor assay, displacement of 125I-BMP-7 from ROS cell plasma membranes

- 50% inhibition of cellular responsiveness to BMP-7 (ROS cell alkaline phosphatase assay) [1]: 5 µM
- peptide concentration that potentiated the binding of 125I-labeled BMP-7 [2]: 8 µM
B1: H-2C (peptide)
peptide: CCFINPETVCC
modifications: cyclized (disulfide bond between cysteines)

- IC50 [3]: 1 µM
- potentiation of BMP-7 induced cell responsiveness at 0.6-60 µM peptide (ROS cell alkaline phosphatase assay) [1]: 20%
B2: F2-2 (peptide)
peptide: CYFDDSSNVIC
modifications: disulfide 1-11 (inferred)

- concentration required to inhibit the binding of 125I-labeled BMP-7 [3]: 179 µM
- 50% inhibition of the cell responsive to BMP-7 (ROS cell alkaline phosphatase assay) [1]: 10 µM
B3: F1-2 (peptide)
peptide: CFRDLGWQDWIIAPC
modifications: disulfide 1-15 (inferred)
